One may read the Kd as a measure of binding affinity in units of concentration. Higher therefore signals weaker binding. One may read the koff as the rate constant with which the complex falls apart. Low values mean a long-lived complex, high ones a short-lived complex. Usually kon stands for the rate constant with which the complex forms.

Results on four molecules are retold here after publication PMC9714555, “Hemocyte response to treatment of susceptible and resistant Asian corn borer (Ostrinia furnacalis) larvae with Cry1F toxin from Bacillus thuringiensis” (Frontiers in Immunology, 2022).

The labels stand for the following.
B1: CD63 antigen-like (CD63) tetraspanin, His tag removed (natural protein)
chain: KGNAEALVQKQLYETMQLYTHDVVVTRLWDEVQEDFSCCGVNNASDWLAPLGTANTDQGLPLSCCQFPFGTITVFNCTMATPAPTLRTEGCSTAFGAWVQSHAGS
modifications: Wild-type trypsin-activated core; the text prints neither the Cry1F subtype nor the limits. Cry1Fa assumed, with the conventional tryptic core 28-612.
B2: hemolymph lipopolysaccharide-binding protein (LBP), His tag removed (natural protein)
chain: QKRYRNDYVYDANTDAFYKFHVNMAVHWRALTICKLEGATLMVPTSVQQIAQVHGMFKQYPDIGHYVWIGDDNADHESAEETPIIDLQPEVETEAPWERRCLVLTRRGEIQTQNCRYYQSFVCMVEAKNAPYDHRCDVYAAGYEYNTDVKSCYKIPRDIKTWNAAYAECQAHGAHLVVVNSVTERDVLQALMSRTPYLRTSFSPYHYIAGIRATSVIGSEVVYRTIFNETLEEAGFSEWADNEPNNQQGIEYCGSLHQRSGKYNDISCLSSFGYICEKERNE
modifications: Wild-type trypsin-activated core; the text prints neither the Cry1F subtype nor the limits. Cry1Fa assumed, with the conventional tryptic core 28-612.
B3: C-type lectin lectoxin-Phi1-like (C-lectoxin), His tag removed (natural protein)
chain: DVPKDYIVNPNDSHGYKLMYHAKTWTEARDDCANVGAKLAVPKTRDQFEFIQKIVRSMQYQSIVGTEYKLLVWLGISNLKNYQVWANVDGENIEDTEFHTWAGQNGLKSENPAEPHCVGMDSMNFGLRDWWCHQRQPYICEILTVQNATQ
modifications: Wild-type trypsin-activated core; the text prints neither the Cry1F subtype nor the limits. Cry1Fa assumed, with the conventional tryptic core 28-612.
B4: C-type mannose receptor 2-like (C-MR2), His tag removed (natural protein)
chain: SELNTSKSNWFRPDYSYSERTGGWFKFHSVPATWEDARLQCYYEGAELVSPFNENIIQKMIMLMDVNEPYIFTGIHSTFSKGVYTSVGGVPLHEMPVSLHSRDVSGNCVTMRSNGRVEARNCSSQYPYICFKKGPEHLTSSVCGADQEYKYEQRTGSCYKFHTLGRTWPQAFRVCVAEGGHLAIINSDVEADVIRGIFQNYPDDAFKADAKYAASIGFQGWGAVKIWWTIHGQTLQDAGYSKWDKFVPDMRSTRHYCGAVGRNGTLSHIECEGVTFPAICEKKADLV
modifications: Wild-type trypsin-activated core; the text prints neither the Cry1F subtype nor the limits. Cry1Fa assumed, with the conventional tryptic core 28-612.

The target of the test is Trypsin-activated Cry1F toxin from Bacillus thuringiensis (Bacillus thuringiensis, UniProt Q03746 1-1174). Briefly: SPR; Biacore 8K; activated Cry1F immobilised on a CM5 chip (10 mM sodium acetate pH 4.0); analytes without His tag in 10 mM HEPES, 150 mM NaCl, 3 mM EDTA, 0.005% Tween-20, pH 7.4; 30 uL/min, association 120 s, dissociation 280 s; 1:1 binding model. The conditions noted are these: both partners purified.
Sequence of Trypsin-activated Cry1F toxin from Bacillus thuringiensis (Q03746 28-612 limits assumed): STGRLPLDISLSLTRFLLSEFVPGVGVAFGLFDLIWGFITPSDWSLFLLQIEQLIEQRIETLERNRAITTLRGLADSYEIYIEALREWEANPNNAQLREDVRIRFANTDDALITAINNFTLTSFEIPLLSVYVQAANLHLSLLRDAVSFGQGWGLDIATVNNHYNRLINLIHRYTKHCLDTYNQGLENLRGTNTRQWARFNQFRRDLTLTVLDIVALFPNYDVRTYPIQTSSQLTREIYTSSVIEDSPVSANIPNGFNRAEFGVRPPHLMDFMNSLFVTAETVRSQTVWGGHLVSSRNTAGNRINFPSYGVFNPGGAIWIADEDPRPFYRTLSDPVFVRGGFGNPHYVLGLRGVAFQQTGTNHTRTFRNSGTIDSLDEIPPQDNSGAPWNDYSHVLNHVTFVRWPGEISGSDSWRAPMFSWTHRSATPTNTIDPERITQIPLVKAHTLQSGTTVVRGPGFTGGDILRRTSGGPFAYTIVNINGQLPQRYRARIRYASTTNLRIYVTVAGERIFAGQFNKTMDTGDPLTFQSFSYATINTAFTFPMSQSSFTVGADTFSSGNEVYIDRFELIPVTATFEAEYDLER
B1 returned a Kd of 294 nM, a koff of 0.00474 s⁻¹ and a kon of 16100 M⁻¹ s⁻¹.
Regarding B2, the affinity, expressed as Kd, was 119 nM; the koff is 0.00294 s⁻¹; the kon came out at 24700 M⁻¹ s⁻¹.
As for B3, the Kd was 46.6 nM, the koff came to 0.00513 s⁻¹ and the kon was 110000 M⁻¹ s⁻¹.
B4 registered a Kd of 22.1 nM, a koff of 0.0041 s⁻¹ and a kon of 185000 M⁻¹ s⁻¹.
